Experimental data from article PMC6764942, “TFF3 interacts with LINGO2 to regulate EGFR activation for protection against colitis and gastrointestinal helminths” (Nature Communications, 2019).
Where no end group is shown, it is not given here.

Biological target: T1, LINGO2-GFP on HEK293 transfectants (mouse, UniProt Q3URE9 28-606)
T1 construct: LINGO2, mouse, from pCMV3-mLINGO2-GFP; also called GFP-LINGO2; pCMV3-mLINGO2-GFP; source: HEK293, transfected, on cells
T1 sequence (looked up): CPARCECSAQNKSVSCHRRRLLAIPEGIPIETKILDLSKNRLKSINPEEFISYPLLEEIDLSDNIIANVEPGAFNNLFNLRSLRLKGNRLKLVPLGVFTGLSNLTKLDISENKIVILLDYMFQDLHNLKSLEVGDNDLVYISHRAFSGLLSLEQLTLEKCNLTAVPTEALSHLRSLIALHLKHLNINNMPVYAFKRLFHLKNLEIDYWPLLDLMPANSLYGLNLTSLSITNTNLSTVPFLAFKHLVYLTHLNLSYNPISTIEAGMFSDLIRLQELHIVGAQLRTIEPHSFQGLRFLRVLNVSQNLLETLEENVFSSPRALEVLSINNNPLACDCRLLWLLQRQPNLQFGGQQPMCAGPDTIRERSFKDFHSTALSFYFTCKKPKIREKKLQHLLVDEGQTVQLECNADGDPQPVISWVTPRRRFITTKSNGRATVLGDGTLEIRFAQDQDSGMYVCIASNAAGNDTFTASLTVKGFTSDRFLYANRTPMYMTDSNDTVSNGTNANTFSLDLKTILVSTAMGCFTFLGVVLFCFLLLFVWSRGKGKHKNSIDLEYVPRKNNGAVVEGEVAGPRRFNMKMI
Assay: flow cytometry on cells; HEK293 transfected with GFP-labeled receptors, 24 h later incubated with PBS or 3 ug Alexa Fluor 647 labeled soluble ligand for 16 h at 4 C; double positive (GFP and AF-647) cells counted
Details: one partner purified

B1: TFF3-647 (murine recombinant TFF3 labeled with Alexa Fluor 647) (ligand, mouse, UniProt Q62395 23-81, looked up)
chain: ADYVGLSPSQCMVPANVRVDCGYPSVTSEQCNNRGCCFDSSIPNVPWCFKPLQETECTF
modifications: ends and bridges not checked; also: Alexa Fluor 647 label, site not given here
notes: Trefoil factor 3, mouse, recombinant (Peprotech); A commercial recombinant TFF3 is probably the mature protein (surmise); source: bought: Peprotech
fold increase in double-positive cells compared to PBS or IL-2-647: 12 fold
